From patent US20060153833A1 (Genmab, published 2006)

Columns and labels:
[1] = biological target: T1, subtype 1b derived E2 (BK strain) expressed by recombinant Sindbis virus Sinrep/HCV-BK1-1207 (Hepatitis C virus strain BK (genotype …, UniProt P26663 384-746)); experiment: immunoprecipitation from cells infected with Sinrep/HCV-BK1-1207
T1 construct: Immunoprecipitated from lysates of infected cells; also called genotype 1b antigen

[2] = biological target: T2, E2 glycoprotein expressed by recombinant vaccinia virus vHCV1-1488 (HCV-H) (Hepatitis C virus strain H (genotype 1a), UniProt P27958 384-746); experiment: pulse-chase immunoprecipitation, reducing SDS-PAGE
T2 construct: 35S-labelled and immunoprecipitated from cell lysates in pulse-chase experiments
T2 sequence (P27958 384-746 limits assumed): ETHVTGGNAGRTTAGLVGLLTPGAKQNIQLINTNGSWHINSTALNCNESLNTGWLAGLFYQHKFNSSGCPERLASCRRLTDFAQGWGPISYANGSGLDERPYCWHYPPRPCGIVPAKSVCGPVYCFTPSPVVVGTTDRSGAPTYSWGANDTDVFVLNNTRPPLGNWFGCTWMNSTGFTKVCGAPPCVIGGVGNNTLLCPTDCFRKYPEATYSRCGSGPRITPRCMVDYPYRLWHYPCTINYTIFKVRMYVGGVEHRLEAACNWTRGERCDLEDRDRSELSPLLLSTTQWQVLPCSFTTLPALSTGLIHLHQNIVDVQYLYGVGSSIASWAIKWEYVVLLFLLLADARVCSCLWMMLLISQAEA

T1 sequence (P26663 384-746 limits assumed): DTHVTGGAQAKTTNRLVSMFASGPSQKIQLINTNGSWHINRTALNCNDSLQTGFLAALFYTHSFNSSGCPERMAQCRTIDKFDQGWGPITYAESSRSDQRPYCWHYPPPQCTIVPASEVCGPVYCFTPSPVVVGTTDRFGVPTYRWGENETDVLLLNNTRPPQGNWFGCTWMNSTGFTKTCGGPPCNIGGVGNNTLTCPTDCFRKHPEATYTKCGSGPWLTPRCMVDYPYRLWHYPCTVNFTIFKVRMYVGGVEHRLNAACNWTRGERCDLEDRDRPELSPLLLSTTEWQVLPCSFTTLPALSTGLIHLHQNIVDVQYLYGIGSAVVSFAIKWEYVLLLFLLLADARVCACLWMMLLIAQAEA

B1: HMAb 503 (antibody, V domains shown)
VH: QVQLQQWGAGLLKPSETLSLTCAVYGGSLSGYFWTWIRQSPGKGLEWIGESNYSGSTRYNPSLKSRVTISVDTSQNQFSLKLSSVTAADTAVYYCARGWAVDGMDVWGQGTTVTVSS
VL: SYELTQPPSVSVSPGQTARITCSGDALPKQYAYWYQQKPGQAPVLVIYKDNERPSGIPERFSGSRSGTTVTLTISGVQAEDEADYYCQSADSSGSSWVFGGGTKLTVL
notes: also called antibody 503; clone 503
B1: binds [1]; binds [2].
